Reference: patent US6323001A, “Increasing the trehalose content of organisms by transforming them with combinations of the structural genes for trehalose synthase” (BTG International Ltd., priority 1994, dated 2001)

Columns and labels:
Type in all cases: biochemical, baker's yeast
[1] = biological target: T1, Tre6Pase activity of intact trehalose synthase (Saccharomyces cerevisiae, UniProt P31688); assay: Tre6Pase assay of intact trehalose synthase
T1 construct: Intact trehalose synthase was purified from commercial baker's yeast; made in house; host or cells: commercial baker's yeast (native enzyme purified, not recombinant)
T1 sequence (P31688 1-896): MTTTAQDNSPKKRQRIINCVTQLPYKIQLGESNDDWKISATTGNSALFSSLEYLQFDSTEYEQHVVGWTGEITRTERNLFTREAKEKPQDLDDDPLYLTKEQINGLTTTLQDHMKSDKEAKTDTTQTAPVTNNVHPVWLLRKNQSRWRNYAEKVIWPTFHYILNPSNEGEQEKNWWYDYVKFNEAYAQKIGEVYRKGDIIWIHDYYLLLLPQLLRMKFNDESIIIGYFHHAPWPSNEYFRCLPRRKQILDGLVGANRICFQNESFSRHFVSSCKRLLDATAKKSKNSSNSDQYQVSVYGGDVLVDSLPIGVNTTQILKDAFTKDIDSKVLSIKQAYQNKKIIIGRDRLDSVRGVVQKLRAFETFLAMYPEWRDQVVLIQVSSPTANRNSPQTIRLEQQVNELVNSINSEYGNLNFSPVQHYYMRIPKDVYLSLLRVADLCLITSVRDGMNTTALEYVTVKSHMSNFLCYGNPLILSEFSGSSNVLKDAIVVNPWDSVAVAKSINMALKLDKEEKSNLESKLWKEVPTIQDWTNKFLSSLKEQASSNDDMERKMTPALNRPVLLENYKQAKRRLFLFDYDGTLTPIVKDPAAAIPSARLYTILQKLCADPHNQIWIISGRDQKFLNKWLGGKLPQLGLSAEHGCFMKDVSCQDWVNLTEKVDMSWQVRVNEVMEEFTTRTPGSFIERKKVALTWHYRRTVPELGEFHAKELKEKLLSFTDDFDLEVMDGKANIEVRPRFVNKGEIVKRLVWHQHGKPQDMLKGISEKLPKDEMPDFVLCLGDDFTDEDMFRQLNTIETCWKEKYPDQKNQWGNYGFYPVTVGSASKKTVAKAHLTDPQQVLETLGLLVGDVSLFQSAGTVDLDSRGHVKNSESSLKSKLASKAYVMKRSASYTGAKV
T1 sequence (Q00764 1-495 partner): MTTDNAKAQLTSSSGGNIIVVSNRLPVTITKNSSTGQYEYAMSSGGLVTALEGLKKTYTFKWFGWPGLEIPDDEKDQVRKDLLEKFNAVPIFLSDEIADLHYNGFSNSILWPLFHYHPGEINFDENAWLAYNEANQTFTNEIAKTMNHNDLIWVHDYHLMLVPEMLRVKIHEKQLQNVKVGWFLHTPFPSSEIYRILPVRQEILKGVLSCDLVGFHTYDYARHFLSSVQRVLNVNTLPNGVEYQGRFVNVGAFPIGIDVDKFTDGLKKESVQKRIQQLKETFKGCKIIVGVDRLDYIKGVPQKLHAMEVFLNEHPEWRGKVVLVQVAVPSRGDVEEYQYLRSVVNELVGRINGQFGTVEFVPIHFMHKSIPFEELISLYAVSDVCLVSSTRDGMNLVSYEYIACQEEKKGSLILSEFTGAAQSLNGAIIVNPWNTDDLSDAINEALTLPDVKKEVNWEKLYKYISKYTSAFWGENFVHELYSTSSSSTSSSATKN
T1 sequence (P38427 1-1098 partner): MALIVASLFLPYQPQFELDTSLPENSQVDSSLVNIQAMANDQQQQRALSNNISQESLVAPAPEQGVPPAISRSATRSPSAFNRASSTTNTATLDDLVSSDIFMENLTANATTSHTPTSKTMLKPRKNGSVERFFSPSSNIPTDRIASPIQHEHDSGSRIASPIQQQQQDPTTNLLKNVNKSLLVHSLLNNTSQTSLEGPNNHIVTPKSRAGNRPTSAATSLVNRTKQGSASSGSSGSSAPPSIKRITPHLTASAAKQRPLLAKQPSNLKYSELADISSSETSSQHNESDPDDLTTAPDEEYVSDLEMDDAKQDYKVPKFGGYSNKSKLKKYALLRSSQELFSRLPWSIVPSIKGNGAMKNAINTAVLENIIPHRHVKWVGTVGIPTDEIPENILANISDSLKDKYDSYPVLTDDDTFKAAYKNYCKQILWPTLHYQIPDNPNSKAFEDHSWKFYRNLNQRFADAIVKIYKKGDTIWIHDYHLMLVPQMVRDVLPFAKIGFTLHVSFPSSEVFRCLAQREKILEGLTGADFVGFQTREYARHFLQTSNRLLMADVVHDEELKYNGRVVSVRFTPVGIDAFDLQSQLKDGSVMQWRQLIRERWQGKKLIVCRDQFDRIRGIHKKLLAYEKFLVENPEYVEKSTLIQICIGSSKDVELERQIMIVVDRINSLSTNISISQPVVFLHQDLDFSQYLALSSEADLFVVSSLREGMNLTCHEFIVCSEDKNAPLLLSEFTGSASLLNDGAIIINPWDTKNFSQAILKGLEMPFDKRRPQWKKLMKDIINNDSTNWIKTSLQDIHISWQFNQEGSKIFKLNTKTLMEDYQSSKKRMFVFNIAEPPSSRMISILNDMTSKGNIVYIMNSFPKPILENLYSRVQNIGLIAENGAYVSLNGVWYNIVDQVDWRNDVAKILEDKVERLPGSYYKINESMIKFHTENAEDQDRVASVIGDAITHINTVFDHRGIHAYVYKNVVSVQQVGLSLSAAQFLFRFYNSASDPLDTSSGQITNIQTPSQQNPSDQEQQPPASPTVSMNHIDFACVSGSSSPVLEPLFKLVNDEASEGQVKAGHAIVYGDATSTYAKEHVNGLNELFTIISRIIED
Protocol: (§1) With microbial materials, Tre6Pase and Tre6P synthase standard assays and other kinetic measurements were made as described by Londesborough & Vuorio [(1991) loc. cit.] except that the standard Tre6P synthase assay mixture contained 5 mM F6P unless stated otherwise.
(§2) In one experiment intact trehalose synthase (0.28 Tre6P synthase units, ≈9.4 μg) was incubated with or without 0.5 μg of trypsin at 30° C. in 250 μl of 13 mM HEPES pH 7.0 containing 1 mM MgCl2, 0.5 mM EDTA, 0.5 mM dithiothreitol, 0.2 M NaCl and 0.5 mM benzamidine. Its Tre6P synthase activity was determined at intervals using standard assay mixtures (containing 5 mM F6P) containing no or 4 mM K phosphate pH 6.8, and samples were prepared for SDS-PAGE analysis immediately before and 48 min after addition of the trypsin.
Intact trehalose synthase was prepared as in Example 1. Kinetic assays were done at 30° C. as described in General Methods and Materials.

[2] = biological target: T2, Tre6P synthase activity of intact trehalose synthase (Saccharomyces cerevisiae, UniProt Q00764); assay: Tre6P synthase assay of intact trehalose synthase; settings: 11 μg trypsin, 25° C., after first 30 min (26% before)
T2 construct: Intact trehalose synthase was purified from commercial baker's yeast; made in house; host or cells: commercial baker's yeast (native enzyme purified, not recombinant)

[3] = biological target: T2, Tre6P synthase activity of intact trehalose synthase; assay: Tre6P synthase assay of intact trehalose synthase; settings: 0.5 μg trypsin, 30° C., first 10 min
Protocol: as §1
as §2, with “Removal of the N-terminal 325 or so amino acids from the 123 kDa long chain of intact trehalose synthase by treatment with trypsin in vitro produces an enzyme with catalytic properties like those of the truncated enzyme purified by Londesborough & Vuorio [(1991) loc. cit.]. In” for “In”
Truncated trehalose synthase was prepared as described by Londesborough & Vuorio [(1991) loc. cit.] and contained the 57 kDa short chain and 86 and 93 kDa fragments of the long chain. Intact trehalose synthase was prepared as in Example 1. Kinetic assays were done at 30° C. as described in General Methods and Materials.

[4] = biological target: T3, Tre6Pase activity of the 99 kDa polypeptide (Saccharomyces cerevisiae, UniProt P31688); assay: Tre6Pase activity of isolated 99 kDa polypeptide
T3 construct: the 99 kDa polypeptide isolated from intact trehalose synthase is a specific trehalose-6-phosphatase; made in house; host or cells: commercial baker's yeast (native; isolated from intact trehalose synthase on phosphocellulose)
Protocol: Intact trehalose synthase has also been fractionated on phosphocellulose in the absence of Triton, and with elution by a simple linear gradient from 0 to 0.6 M NaCl. […] This activity differed from the Tre6Pase activity of intact trehalose synthase in that the ratio of activities at 25 mM phosphate and 50 mM Hepes was between 1.5 and 3 in different experiments (cf, this ratio is 5 to 6 for intact trehalose synthase). Furthermore, during storage of the isolated 99 kDa polypeptide at 0° C., the Tre6Pase activity at 25 mM phosphate decreased and that at 50 mM Hepes increased, until the ratio was about 0.7 after 7 weeks.

Compound	loss of Tre6Pase activity ([1]; limited treatment with trypsin, 30° C.)	Tre6P synthase activity in absence of F6P and presence of 10 mM phosphate, % of standard activity [2]	increase in Tre6P synthase activity measured at 4 mM phosphate [3]	rate of hydrolysis relative to 0.5 mM trehalose-6-phosphate ([1]; 1 mM G6P, phosphate or Hepes buffer)	hydrolysis by isolated 99 kDa polypeptide [4]
trypsin	about 50%	73%	4 fold	–	–
O=P(O)(O)OC[C@H]1OC(O)[C@H](O)[C@@H](O)[C@@H]1O (some centres unmarked) [Transformant G6P, Glucose 6-phosphate]	–	–	–	less than 1%	not hydrolyzed
